# Values quoted from earlier work as cited in article PMC10330121.
# Tests used:
# PAF15 (Homo sapiens) = PAF15 (Homo sapiens) (UniProt Q15004)
# [1] = biological target: histone H3 N-terminal tail (Homo sapiens) (UniProt P68431)
# [2] = biological target: VRK1-K4me3 (Homo sapiens) (UniProt Q99986)
# VRK1-K4me3 (Homo sapiens), sequence (Q99986 whole entry): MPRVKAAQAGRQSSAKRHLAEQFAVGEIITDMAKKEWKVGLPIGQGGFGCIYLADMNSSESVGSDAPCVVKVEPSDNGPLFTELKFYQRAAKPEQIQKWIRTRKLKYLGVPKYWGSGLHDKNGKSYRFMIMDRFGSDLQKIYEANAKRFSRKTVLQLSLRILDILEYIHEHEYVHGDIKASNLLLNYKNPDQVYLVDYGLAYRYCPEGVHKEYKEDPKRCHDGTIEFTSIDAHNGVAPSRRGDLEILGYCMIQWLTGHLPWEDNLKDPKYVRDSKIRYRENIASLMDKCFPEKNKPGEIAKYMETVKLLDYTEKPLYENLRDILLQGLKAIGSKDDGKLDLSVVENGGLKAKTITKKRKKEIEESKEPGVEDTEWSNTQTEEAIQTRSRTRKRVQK
# UHRF1 PHD, sequence (Q96T88 307-369): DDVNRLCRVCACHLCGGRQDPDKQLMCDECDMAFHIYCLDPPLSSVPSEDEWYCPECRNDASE
# PHF8 PHD-Jumonji, sequence (Q9UPP1 37-483): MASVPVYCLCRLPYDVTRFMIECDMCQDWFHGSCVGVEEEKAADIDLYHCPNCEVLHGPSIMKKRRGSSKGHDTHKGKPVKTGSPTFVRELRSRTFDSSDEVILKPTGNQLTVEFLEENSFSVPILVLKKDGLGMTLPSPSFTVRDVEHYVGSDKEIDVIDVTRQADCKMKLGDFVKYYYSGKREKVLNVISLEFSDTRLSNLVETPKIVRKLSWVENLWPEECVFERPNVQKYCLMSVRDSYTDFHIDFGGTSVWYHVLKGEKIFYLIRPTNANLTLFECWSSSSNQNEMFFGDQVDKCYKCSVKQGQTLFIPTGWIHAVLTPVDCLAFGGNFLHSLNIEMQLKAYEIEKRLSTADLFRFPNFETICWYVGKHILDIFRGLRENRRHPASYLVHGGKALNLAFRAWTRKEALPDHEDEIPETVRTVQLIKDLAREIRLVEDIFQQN
# PAF15 (Homo sapiens), sequence (Q15004 whole entry): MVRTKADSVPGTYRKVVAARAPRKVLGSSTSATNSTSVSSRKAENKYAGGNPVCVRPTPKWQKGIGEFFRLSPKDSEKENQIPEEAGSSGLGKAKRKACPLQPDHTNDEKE
Substance,Kd (PAF15 (Homo sapiens)) [nM],Kd [1] [nM],Kd [2] [nM]
UHRF1 PHD (from UniProt Q96T88),2000,2000,
PHF8 PHD-Jumonji (from UniProt Q9UPP1),,,42
